T1: MBP-IpMYB1 (Ipomoea purpurea, UniProt Q1JV13 1-272)
T1 sequence: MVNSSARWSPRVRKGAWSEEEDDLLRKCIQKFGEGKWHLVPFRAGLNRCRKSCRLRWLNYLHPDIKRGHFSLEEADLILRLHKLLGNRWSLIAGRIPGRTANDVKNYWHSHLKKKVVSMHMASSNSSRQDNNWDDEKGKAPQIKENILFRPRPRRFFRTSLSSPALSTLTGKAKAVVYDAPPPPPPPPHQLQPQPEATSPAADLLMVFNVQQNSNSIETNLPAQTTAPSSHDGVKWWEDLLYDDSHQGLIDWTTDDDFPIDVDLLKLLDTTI


Assays:
MBP-IpMYB1 [1] = target: T1, MBP-IpMYB1; test: EMSA; EMSA: 1x = 10 mM Tris-HCl pH 7.5, 50 mM NaCl, 8 mM MgCl2, 1 mM EDTA, 1 mM DTT, 5% glycerol; 20 pmol probe, 2 ug MBP-protein in 10 ul, 25 C, 10 min; 12% native PAGE, 0.25x TBE; conditions: protein: recombinant; tags: MBP (pMAL-c2G)
MBP-IpMYB1 [2] = target: T1, MBP-IpMYB1; test: EMSA; favored over probe 1; EMSA: 1x = 10 mM Tris-HCl pH 7.5, 50 mM NaCl, 8 mM MgCl2, 1 mM EDTA, 1 mM DTT, 5% glycerol; 20 pmol probe, 2 ug MBP-protein in 10 ul, 25 C, 10 min; 12% native PAGE, 0.25x TBE; conditions: protein: recombinant; tags: MBP (pMAL-c2G)

Row | Binder | binding result (MBP-IpMYB1 [1]) | binding result (MBP-IpMYB1 [2])
1 | p1x3 (dsDNA) DNA 1: ATTCCTAGCTACCATACCTAGCTACCATACCTAGCTACCATATTA DNA 2: TAATATGGTAGCTAGGTATGGTAGCTAGGTATGGTAGCTAGGAAT | binds | –
2 | MYB1pro probe 3 (dsDNA) DNA 1: TCTAGCTAGCTAGCTACCAACTGCAC DNA 2: GTGCAGTTGGTAGCTAGCTAGCTAGA | – | binds

— PMC3847620, “A valid strategy for precise identifications of transcription factor binding sites in combinatorial regulation using bioinformatic and experimental approaches”
